Where two headings read alike, the source gives them in different places.

For seven molecules, binding result and Kd results are on record in PMC2789664.

Series [1] concerns the target T1, GAPDH wild type (Homo sapiens, UniProt P04406 1-335). As to the kind of experiment: competition EMSA. Background: A gel shift assay detects complexes by their altered migration in electrophoresis.
In series [2] the target is T1, GAPDH wild type. As to the kind of experiment: EMSA.
Series [3] deals with T1, GAPDH wild type. The series can be described thus: competition EMSA. This is another data set of the same source.
The target in series [4] is T1, GAPDH wild type. As to the kind of experiment: competition EMSA. This is another data set of the same source.

T1 sequence (P04406 whole entry): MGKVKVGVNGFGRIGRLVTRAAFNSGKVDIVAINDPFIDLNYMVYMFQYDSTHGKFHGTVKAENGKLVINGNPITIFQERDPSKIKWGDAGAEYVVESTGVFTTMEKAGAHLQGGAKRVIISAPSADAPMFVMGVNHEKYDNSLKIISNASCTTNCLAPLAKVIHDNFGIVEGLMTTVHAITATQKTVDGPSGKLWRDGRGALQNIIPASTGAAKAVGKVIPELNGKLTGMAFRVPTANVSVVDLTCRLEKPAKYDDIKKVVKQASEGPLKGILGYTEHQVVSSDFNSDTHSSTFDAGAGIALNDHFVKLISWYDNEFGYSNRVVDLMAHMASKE

As to TTTGGGTTTGGGTTTGGG (ssDNA) [ss-(TTTGGG)3], the binding result in the series with GAPDH wild type [1] is “binds”. In general, Kd refers to the constant that tells how readily two partners part at equilibrium. A higher Kd goes with a looser complex. AGGGTTAGGGTTAGGGTT (ssDNA) [ss-(AGGGTT)3] displayed a Kd with GAPDH wild type [2] of 45 ± 5 nM. TTAGCGTTAGCGTTAGCG (ssDNA) [ss-(TTAGCG)3]: in the series with GAPDH wild type [3], the binding result was “no binding”. For AGATGTAGCAATAGTAGT (ssDNA) [control 18-mer], the binding result with GAPDH wild type [4] is on record as “no binding”. With TTAGGGTTAGGGTTAGGG (ssDNA) [ss-(TTAGGG)3], the Kd in the series with GAPDH wild type [2] was 70 ± 5 nM. Take ATAGGGATAGGGATAGGG (ssDNA) [ss-(ATAGGG)3]: the binding result with GAPDH wild type [3] is listed as “no binding”.

As for TTAGGCTTAGGCTTAGGC (ssDNA) [ss-(TTAGGC)3], the binding result with GAPDH wild type [3] is on record as “no binding”.
